We go through two molecules from publication PMC7733260, “Long non-coding RNA NEAT1 promotes bone metastasis of prostate cancer through N6-methyladenosine”.

In one series the target is CDK19 (UniProt Q9BWU1 1-502). Description: EMSA; 10 mM Mg2+, tRNA, RNase T1; EMSA: 10 mM Tris-Cl pH 7.5, 25 mM KCl, 10 mM MgCl2, 1 mM DTT, 100 ng/ml tRNA, 25 C 30 min, then RNase T1 37 C 15 min. Pull-down: lysate in 50 mM Tris-HCl pH 7.5, 150 mM NaCl, 1% NP-40, 0.1% SDS, 4 C 12 h; wash 50 mM Tris pH 7.4, 150 mM NaCl, 0.05% NP-40, 1 mM MgCl2. The settings on record: protein: ivt; tags: Flag; label: 3' biotin. (A gel shift assay detects complexes by their altered migration in electrophoresis.)

Another series deals with T1, CYCLINL1 (cyclin L1) (UniProt Q9UK58 1-526).
T1 sequence: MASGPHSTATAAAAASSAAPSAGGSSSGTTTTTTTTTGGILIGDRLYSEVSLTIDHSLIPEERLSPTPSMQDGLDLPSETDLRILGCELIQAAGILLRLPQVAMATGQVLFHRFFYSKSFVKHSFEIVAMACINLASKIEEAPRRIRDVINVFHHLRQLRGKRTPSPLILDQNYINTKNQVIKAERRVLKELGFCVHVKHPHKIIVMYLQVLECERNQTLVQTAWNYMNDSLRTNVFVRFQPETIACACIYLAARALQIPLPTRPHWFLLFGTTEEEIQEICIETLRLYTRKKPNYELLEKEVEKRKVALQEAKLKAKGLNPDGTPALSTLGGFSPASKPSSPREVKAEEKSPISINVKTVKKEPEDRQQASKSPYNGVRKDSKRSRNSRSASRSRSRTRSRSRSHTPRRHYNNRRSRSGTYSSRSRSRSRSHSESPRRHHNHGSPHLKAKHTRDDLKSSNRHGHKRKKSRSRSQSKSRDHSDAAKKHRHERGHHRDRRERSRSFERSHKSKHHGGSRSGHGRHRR
Described as above. To be noted: protein: ivt; tags: Myc; label: 3' biotin.

CDK19, sequence (Q9BWU1 whole entry): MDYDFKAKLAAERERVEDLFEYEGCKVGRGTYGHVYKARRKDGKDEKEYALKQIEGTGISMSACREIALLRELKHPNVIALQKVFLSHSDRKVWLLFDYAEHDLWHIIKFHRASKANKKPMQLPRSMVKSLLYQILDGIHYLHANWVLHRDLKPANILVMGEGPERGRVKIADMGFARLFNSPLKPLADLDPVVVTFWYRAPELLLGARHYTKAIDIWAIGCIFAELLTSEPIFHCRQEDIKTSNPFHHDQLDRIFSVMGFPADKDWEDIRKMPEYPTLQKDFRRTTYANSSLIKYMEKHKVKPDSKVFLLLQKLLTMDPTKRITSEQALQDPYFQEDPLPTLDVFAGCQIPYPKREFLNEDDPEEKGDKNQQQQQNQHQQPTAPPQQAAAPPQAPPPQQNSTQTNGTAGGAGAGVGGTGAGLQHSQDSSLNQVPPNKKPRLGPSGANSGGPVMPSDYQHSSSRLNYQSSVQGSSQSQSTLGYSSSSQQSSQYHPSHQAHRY

B1: Probe WT in Fig3e (NEAT1-1 U-rich) (ssRNA)
RNA: GCAGCCCCUUUUUUUCCAGACCAAGGGCUGUGA
Consider B1, for which the binding result in the series with CDK19 was “binds”.

B2: Probe m6A in Fig3e (NEAT1-1 site #4) (ssRNA)
RNA: UUAUUUUUAUCGUUGGGAUCUUUCUGUCUUCUGGGUUCCAUUUUUUAAAUGUUUAAAAAUAUGUUGACAUGGUAGUUCAGUUCUUAACCAAUGACUUGGGGAUGA
modifications: m6A at site #4 (A3494); stoichiometry and installation not stated
B2: the binding result in the series with CYCLINL1 (cyclin L1) is “binds”.
